Here are results for one molecule from paper PMC6310021 (2018).

This assay has as its target Metallothionein-2 (UniProt P02795). The assay can be described thus: SPR. For orientation: Surface plasmon resonance follows binding to a sensor surface in real time, without labels.

Metallothionein-2, sequence (P02795 whole entry): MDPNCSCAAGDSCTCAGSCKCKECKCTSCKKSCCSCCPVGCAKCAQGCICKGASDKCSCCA

B1: Transgelin-2 (protein)
chain: ANRGPAYGLSREVQQKIEKQYDADLEQILIQWITTQCRKDVGRPQPGRENFQNWLKDGTVLCELINALYPEGQAPVKKIQASTMAFKQMEQISQFLQAAERYGINTTDIFQTVDLWEGKNMACVQRTLMNLGGLAVARDDGLFSGDPNWFPKKSKENPRNFSDNQLQEGKNVIGLQMGTNRGASQAGMTGYGMPRQIL
Regarding B1, the Kd stood at 110 nM.

The term Kd denotes the equilibrium constant for the complex coming apart.
